For one molecule, Kd results are on record in doi:10.1101/2021.10.18.464838 (2021).

For one test, the target named is T1, CHIP (recombinant human) (human, UniProt Q9UNE7 1-303).
T1 chain: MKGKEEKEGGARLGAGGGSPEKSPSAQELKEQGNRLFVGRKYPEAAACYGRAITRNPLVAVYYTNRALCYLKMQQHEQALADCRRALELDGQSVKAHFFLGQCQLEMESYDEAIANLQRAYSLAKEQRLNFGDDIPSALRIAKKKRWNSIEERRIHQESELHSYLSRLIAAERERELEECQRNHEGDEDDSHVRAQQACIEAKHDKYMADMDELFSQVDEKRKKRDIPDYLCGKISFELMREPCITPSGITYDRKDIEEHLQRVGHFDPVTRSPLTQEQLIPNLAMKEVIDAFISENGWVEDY
Nature of the test: FP.

Test [1] addresses DnaJB4 (recombinant, human, full length, wild type) (human, UniProt Q9UDY4 1-337). Put plainly: FP.

Where no end group is shown, it is not given here.

DnaJB4 (recombinant, human, full length, wild type), sequence (Q9UDY4 whole entry): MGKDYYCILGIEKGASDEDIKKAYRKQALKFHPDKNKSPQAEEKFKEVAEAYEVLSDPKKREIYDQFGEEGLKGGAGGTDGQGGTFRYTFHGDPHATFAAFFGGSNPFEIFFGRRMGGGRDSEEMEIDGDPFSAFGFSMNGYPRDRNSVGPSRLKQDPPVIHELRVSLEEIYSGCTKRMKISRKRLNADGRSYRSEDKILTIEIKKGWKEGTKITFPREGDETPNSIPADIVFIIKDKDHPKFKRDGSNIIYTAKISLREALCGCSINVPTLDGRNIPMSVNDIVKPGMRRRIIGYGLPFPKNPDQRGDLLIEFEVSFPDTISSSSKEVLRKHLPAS

For the molecule GSGPEIEEVD-OH (not fully specified (N-terminus); printed as FITC-Ahx-GSGPEIEEVD) [Hsp72 phosphomimetic T636E tracer FITC-Ahx-GSGPEIEEVD], the results for the Kd (in the test with CHIP (recombinant human); in test [1]) were 5.04 µM and 1.68 µM, respectively.

For orientation: Kd means the constant that tells how readily two partners part at equilibrium.
